The results in this text go back to publication PMC6283879, “Structural assembly of the megadalton-sized receptor for intestinal vitamin B12 uptake and kidney protein reabsorption” (Nature Communications, 2018).

As usually defined, the stoichiometry N is the number of molecules, sites or subunits per partner or assembly.

Data set [1] can be described thus: flow cytometry, cubilin surface expression, CHO K1. As to conditions: glycan lost; control: wild type AMN co-transfected with cubilin. In general terms: In flow cytometry, cells or beads pass a laser one at a time.
Data set [2] concerns the molecule itself. The data set is described as follows: crystal structure; AMN(20–357) and cubilin(26–135) co-expressed in E. coli and co-purified; crystals at 4 °C, sitting drop, 1.5 M magnesium sulphate, 0.1 M MES pH 5.5; 2.3 Å, SAD phasing.

B1: amnionless (AMN): S37A (protein)
parent chain: MGVLGRVLLWLQLCALTQAVSKLWVPNTDFDVAANWSQNRTPCAGGAVEFPADKMVSVLVQEGHAVSDMLLPLDGELVLASGAGFGVSDVGSHLDCGAGEPAVFRDSDRFSWHDPHLWRSGDEAPGLFFVDAERVPCRHDDVFFPPSASFRVGLGPGASPVRVRSISALGRTFTRDEDLAVFLASRAGRLRFHGPGALSVGPEDCADPSGCVCGNAEAQPWICAALLQPLGGRCPQAACHSALRPQGQCCDLCGAVVLLTHGPAFDLERYRARILDTFLGLPQYHGLQVAVSKVPRSSRLREADTEIQVVLVENGPETGGAGRLARALLADVAENGEALGVLEATMRESGAHVWGSSAAGLAGGVAAAVLLALLVLLVAPPLLRRAGRLRWRRHEAAAPAGAPLGFRNPVFDVTASEELPLPRRLSLVPKAAADSTSHSYFVNPLFAGAEAEA
For B1, in data set [1], the localisation_or_trafficking entry is “no change”.

B2: amnionless (AMN): S37A/T41I (protein)
parent chain: B1 parent chain
As to B2, the localisation_or_trafficking entry in data set [1] is reported as “no change”.

B3: N-terminal fragment of cubilin (residues 26–135) (domain or fragment, human, UniProt O60494 26-135, looked up)
chain: GELELQRQKRSINLQQPRMATERGNLVFLTGSAQNIEFRTGSLGKIKLNDEDLSECLHQIQKNKEDIIELKGSAIGLPQNISSQIYQLNSKLVDLERKFQGLQQTVDKKV
notes: The methods name 'human' before AMN only ('human AMN ... and the N-terminal fragment of cubilin'); Cloned into the NdeI site of multiple cloning site 2 of pACYCDuet-1; also called trimeric cubilin; source: also in E. coli lysate / His-tag column eluate with the AMN T41I mutant
Regarding B3, the “stoichiometry N” value in data set [2] is 3.
